Laboratory results taken from a protein production outcome set (Wang et al. 2014).

Experiment: label from the status in PepcDB records
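Also: failed if final PepcDB status was selected cloned or expressed and not failed if soluble or beyond.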

Sequence	protein production
MSEPFTPGDLKTILHSKRANLYYLEHCRVLVNGGRVEYVTDAGKQSLYWNIPIANTTTLLLGTGTSVTQAAMRELAKAGVMVGFCGGGGTPLFSAGEVEMEVAWQSPQSEYRPTEYLQWWARFWFDDDKRLQAAKQLQQARLARIRAQWLDNRQLREAGFEIEPSRLTQLLDASLASLERAPDHTALLTEEARLSKQLFRLAAQATAYGEFTRAKRGGGVDPANRFLDHGNYLAYGLGATAAWVLGLPHSLAILHGKTRRGGLVFDAADLVKDAAILPQAFVSAMKGDDEQTFRQQCIEQLARGEALDFMIDQLQRIAEQLGRDG	failed
MPWLLPREIAPLHQKALDRYLGSLTERLSDPNVDRNALVREELARLLYGRPYEELLEANPLAAMGLDPEGITFEAEYYAATDLEKFRRVKPLLWFWKVLDLTPLGQSVHSGVAIRRALAPFIFKRVGKNPKFFQNVEFSVGYNLELGDDVVVHRYVFLDDIGGIKIGDRTSLSDYVNVYSHTHHVLASPDVTLKETIIGSGVRITYHATVLAGVRIGDDAMVGTGAVVTKDIPPHAIALGIPARPVRYKVRHDCPYCRKGEPHPSDLVPKLPDRKGNPDYPDFLPPGFGTREAGS	failed
MPLNRNHSELRSGKVNLKNGDPFTIALFGVDSDEKRKQQGGGERSDTIMVLSINPKEKKTELVSIPRDTKAEIAGRGTEEKINHAYAYGGPNMAVKTIEKLMNVPIDHYATIDMDGLHDMIDTLGGVDVVSNSTFTMGANHFVKGEKTHVDGDAAMDFIRSRKEDGAGGDFGRQERQQLILEAMADKMTSASSITHFNTLMNQIQKNVKTDLKLGDLNTIRTKYKDANDQVNRHQLEGEGGIQNDGLYYFIPSDASKNENTQLLRDNLNLLEHHHHHH	not failed
MEVSSFSTVPRYCNSRSFVPELSRFRGFKVHLWDQSLVPLHFSIRKRKNTPRYLISCSQKKDVTVVDGSCMDEIYDKLAERLVPTAAAMFSPNLKRLVGLAGPPGAGKSTVANEVVRRVNKLWPQKAASFDAEVNPPDVAIVLPMDGFHLYRSQLDAMEDPKEAHARRGAPWTFDPALLLNCLKKLKNEGSVYVPSFDHGVGDPVEDDIFVSLQHKVVIVEGNYILLEEGSWKDISDMFDEKWFIDVNLDTAMQRVENRHISTGKPPDVAKWRVDYNDRPNAELIIKSKTNADLLIRSMNI	failed
MSEINYSTVQYYLVLILIFIYLSLFVLEKKWPLRKATRPLLPRLAINFTFTLLVYVIASLFISPLAKATVLFTFSHDFGLLSMLPFNQWVVFILGFLLMDLSFYYWHALNHKLPLLWRFHVVHHADPDLDVSTAMRFHCVEIMYSSLFRLVQLGLIGVSPLLFFCYEFFFQAHTFFQHSNIKLPFRFERLINKIIVTPRMHGIHHSNYLNETNSNYGVVFSFWDRLHQTIKLDIPQQAIIIGVPGYSKPSDNSLIRLLLMPIKAQRHYWQIKKDFHFSRKSKTSDKKVRTLCE	failed
PFIMDAPRDLNISEGRMAELKCRTPPMSSVKWLLPNGTVLSHASRHPRISVLNDGTLNFSHVLLSDTGVYTCMVTNVAGNSNASAYLNVS	not failed
MILMHPKGLIKRDDIIYLSIFIVVFLIALRNYMISPPYTLGDTTILPSTNPGLYTPSATIQYYLSLLIGENNLIKTLNFLAFIIAPISIYFTLGRKGDFFKRLILPLIFTLNPISISIFYDGNGEGILLVYSLQPLVYYLTYKMLYEVKNRLKYLIYLSIVEVVGQIFFFQMFLFSLFFQLPFILLSIKERKYLFLVYPILADLLGFLSELSWEVYLYIGVVPSVLVSPSNTLVRLGLAYYSTIVSALLFAIVITTAFIYRNKYALATLTSVGILLVIYAILQNFRFDIPVISALLAAITTFQTKVYLLSFGLLDLSLFYLKRTREFIIPLLSLLLIVLLVNTGGLQATTYSIFSFKPQPMPSWYYELYDYLSQNNPNNVYSLATQYQYLQYLPGFSGFIYDTSFIHNLTNPFYGMKYLISTSQMNYTGLRLVKTFGPVLVYYNENFTGLVHYLNGSPVSNYSISDMEIRIYDGNPPFVVSLPYSEYWTSAENYNGFLELTTNISQNSLTSLVHELFFVSLFFLILPFILLILEKTPMKTLIVGR	failed
MMSTHYIAGQWLAGQGETLESLDPVGQGVVWSGRGADATQVDAAVCAAREAFPAWARRPLEQRIELLERFAATLKSRADELARVIGEETGKPLWESATEVTSMVNKVAISVQAFRERTGEKSGPLADATAVLRHKPHGVVAVFGPYNFPGHLPNGHIVPALLAGNCVVFKPSELTPKVAELTLKAWIQAGLPAGVLNLVQGGRETGVALAAHRGLDGLFFTGSSRTGNLLHSQFGGQPQKILALEMGGNNPLVVEEVADLDAAVYTIIQSAFISAGQRCTCARRLLVPQGAWGDALLARLVAVSATLRVGRFDEQPAPFMGAVISLSAAEHLLKAQEHLIGKGAQPLLAMTQPIDGAALLTPGILDVSAVAERPDEEFFGPLLQVIRYSDFAAAIREANATQYGLAAGLLSDSRERFEQFLVESRAGIVNWNKQLTGAASSAPFGGIGASGNHRPSAYYAADYCAYPVASLESPSVSLPATLTPGIS	not failed
MSSERIVELIKEIYLDFRKGNFKEALVKSEEAHSLDFDNIEILTALKSSVYWNGQVESLDRIGQDYEKAEFLIREWNNFAGRYLKKMGCNFLQGRNSIKYFVFQTCLYIYKNIYKMHPENLDLLIKIAKSYKGMGNYERAINVFLQILGDFKDNSDVVAELADSYALVDEIKEAKVLFREAFFINPQKIDIYSLESDMILRLIDLIKSDRNISDDLIKEWIPVYGSLNGVFNIKRELRPIELGQLKQSVYSLRNELKEKSYRSINESILLPRLINKYFWLIDHYVRIKEDRARIDEILLYIKEIDLGIYQQYVN	failed
MIYLFSHAGLRDLRDFIDRSTLFAFDLDGTLAPIVSDPAGIMIPPDVHERLVRLNGTASVAVVTGRARVDAARHLGFAPRFLVGNHGAEGLPGADAAEREFIGLCRGWMTQLGELLPEGEGTGIVMEDKSATLSLHYRNAPDRENAHQRILAAVSRLLPAPRRVSGKLVENLVPAAAPHKGDALRCIMRHLGCARALFVGDDVTDEDVFRLGDEAIFGIRVGNSGGSAARYFIRGQDEMAPLLDEILAVL	failed
MILNIVTIVSNFIFIALFYQLFVDLFDWSKMIKMSPQNISKLKVFILLISIVGGYVVSHFLLEVIQLCQSIFWALQ	failed
MRLPFAITRFAAGAALAALGTSAFANCVANPPTQSNASFPASLAGKLAYHSYVSYGDGTSQLFIYDFAARTLTQVSKSAWGIQDPMNAVFSPDGKWLAFMGITNNAWNVFLWQVGSSSQPVNMTNSTGQTRNEDPKFSADGKSLFFKQSGDVMQATLSYTSTGPIFTSVVDITNTAPATENSMPFATPDGSAVYFATGTGAGMGLYKETIATHATFAFDTPAGLQTYYPIVRADGTVFYARWKDAASQADQIYTKVNPGDTPNQLSINDCNSNNSDPAPVNGTNYVFFSSTTAGGYQLYLGDVSTGQRWSLSQFGVNSDTTKAKLGSNYYAGGTTASTSGQTTRLLSQGMPASASSSYNSSLGAANAFDGDTANTRWDSIEGSAAGTQWLMVDLGTVRTINGVDLYWDAGAKTYAIQTSSDGVNWTSIYSTSNGIAYGHAVLSNLRGSGRYVRMYGTQRATQWGYSIDEMQVWGY	failed
MTPQIATILGLVIMFIVATALPINMGAVAFALAFIIGGVWVGLEGKEVLAGFPGDLFLTLVGITYLFAIAQKNGTIDLLVHWAVRAVRGRIVAIPWVMFVITGLLTAFGALGPAAVAIIGPVALRFAKQYRINPLMMGLLVIHGAQGGGFSPISVYGGITNKVVEKAGLDVSEMAVFLTSLGFNLMMAIICFCAFGGLKLMRRQELSLADAQYVAVAGDQASHRGFAIEGHGALVAPGGGTLSTDPLALEAVSITRDRVITLIGLLGLGVAALIYNLNVGLVSITVAVALALISPNAQKGAVDGISWSTVLLISGVVTYIAVLEKSGAVDYIGTGVSHIGMPLLGALLVCYVGGIVSAFASSAAVLGATIPLAVPFLMQGQLGAAGVICALAVSSTIVDVSPFSTNGALVVASAAKEERDGLFRRFLIYSGLVVLLGPLAAWLVFVVPGWL	failed
MSGNVGAGRHADELAIRTVQYRWLEATRKFDRQVLSSLMTDDVVFLTPGRLPFGKEEFLAACEQNDQRVIIEASATFEEIVIVEPMAYTRTHLHIKVTPRSGGAVRELAGHAMSIFRRSMFGEWQLARDANLVVPI	not failed
LRSNRVTQHPPLQLSLPVHLPDDETFTSYYPAAGNDELIGALKSAASGDGVQAIYLWGPVKSGRTHLIHAACARANELERRSFYIPLGIHASISTALLEGLEQFDLICIDDVDAVAGHPLWEEAIFDLYNRVAEQKRGSLIVSASASPMEAGFVLPDLVSRMHWGLTYQLQPMMDDEKLAALQRRAAMRGLQLPEDVGRFLLNRMARDLRTLFDVLDRLDKASMVHQRKLTIPFVKEMLRL	not failed
MDKNNNNLRLILAIALSFLFIALYSYFFQKPNKTTTQTTKQETTNNHTATSPNAPNAQHFSTTQTTPQENLLSTISFEHARIEIDSLGRIKQVYLKDKKYLTPKQKGFLEHVGHLFSSKENAQPPLKELPLLAADKLKPLEVRFLDPTLNNKAFNTPYSASKTTLGPNEQLVLTQDLGTLSIIKTLTFYDDLHYDLKIAFKSPNNLIPSYVITNGYRPVADLDSYTFSGVLLENSDKKIEKIEDKDAKEIKRFSNTLFLSSVDRYFTTLLFTKDPQGFEALIDSEIGTKNPLGFISLKNEANLHGYIGPKDYRSLKAISPMLTDVIEYGLITFFAKGVFVLLDYLYQFVGNWGWAIILLTIIVRIILYPLSYKGMVSMQKLKELAPKMKELQEKYKGEPQKLQAHMMQLYKKHGANPLGGCLPLILQIPVFFAIYRVLYNAVELKSSEWILWIHDLSIMDPYFILPLLMGASMYWHQSVTPNTMTDPMQAKIFKLLPLLFTIFLITFPAGLVLYWTTNNILSVLQQLIINKVLENKKRMHAQNKKEH	failed
MKSYRKELWFHTKRRREFINITPLLEECVRESGIKEGLLLCNAMHITASVFINDDEPGLHHDFEVWLEKLAPEKPYSQYKHNDTGEDNADAHLKRTIMGREVVIAITDRKMDLGPWEQVFYGEFDGMRPKRVLVKIIGE	not failed
MARFRDELLLASLIALAALILLRGLGNDSLGFPDADRILMDSVFLRDLLVDLPLADPIGYTKDYFVQYPALSIGYRPPFFPFVAALLQLLVGPEMWATRLALFGFVLVGVASSYFWIRRHYGPWPAWGATALWLTTPYLAQWGWYTMAELTVLSMALLAANLFDKYLAEGKPALLYWSVLAVALAAWTKQTALFLLPWFAAMALAEGRFLAILRRREAWIAAFGLGVLLAPLVAMTLMLGDLNLEQSVGGTNRWTLANWTVRLKTILHHLTPPLLALSVVGAIWAGLKRDRHGLPFALLIVVVYGVFSYISGKNDRYPIFWVPAFALFAVLPFHFLSQRLPAKATVPALALGVGVLAAYQGSLAFTKTPSYATGYKEAAAYVLDSSETPIVFVDAYNNGYFTYFMRALDQGRSMVVLRGDKLLSSSAINMATKVEVHAEGRQEIEEIFRSLGVSLIVVEERNYTGLDVHDELRRFLKTDSFELVQAIPIHSNRTVSVLADFPPLGGQDLLVYRYKDAKTLTSGVVSLRLPVVGQTLSVDMETMMERRRAHP	failed
SGGRRSSWIKNWTLWKHFKDYFPIHLIKTQDLDPSHNYIFGFHPHGIMAVGAFGNFSVNYSDFKDLFPGFTSYLHVLPLWFWCPVFREYVMSVGLVSVSKKSVSYMVSKEGGGNISVIVLGGAKESLDAHPGKFTLFIRQRKGFVKIALTHGASLVPVVSFGENELFKQTDNPEGSWIRTVQNKLQKIMGFALPLFHARGVFQYNFGLMTYRKAIHTVVGRPIPVRQTLNPTQEQIEELHQTYMEELRKLFEEHKGKYGIPEHETLVLK	not failed
MLTQYRQAQEDILRGRVKVRVVGQDKGGGVVMGEGVEIAPGARIEGPVLIGGACHIATGAVVGPFTVLGPYTRVEEGATVRRSVLWDNVYTGEGANVRGLEHHHHHH	not failed
